Laboratory results as given in PMC7737607 (The EMBO Journal, 2020).

Biological target: T1, Cap-Gly-CC1a-p150Glued-V5 (human, UniProt Q14203-1 1-358)
T1 construct: ATUM ordered gene ID #391071; also called Cap-Gly-CC1-p150Glued-V5; p150Glued-V5-tagged fragment; source: generated and purchased from ATUM Bio, purified (streptavidin-column based methods)
Assay: pull-down; purified proteins mixed 1:1, with or without FLAG-EB1 WT or ΔY C-term, 1 h at 4°C in 20 mM Tris-HCl pH 7.4, 350 mM NaCl, 1 mM 2-mercaptoethanol; p150Glued-V5 fragment captured on anti-V5 antibody-coated beads, 2 h at 4°C; Western blot
Conditions: both partners purified

T1 sequence (Q14203 1-358): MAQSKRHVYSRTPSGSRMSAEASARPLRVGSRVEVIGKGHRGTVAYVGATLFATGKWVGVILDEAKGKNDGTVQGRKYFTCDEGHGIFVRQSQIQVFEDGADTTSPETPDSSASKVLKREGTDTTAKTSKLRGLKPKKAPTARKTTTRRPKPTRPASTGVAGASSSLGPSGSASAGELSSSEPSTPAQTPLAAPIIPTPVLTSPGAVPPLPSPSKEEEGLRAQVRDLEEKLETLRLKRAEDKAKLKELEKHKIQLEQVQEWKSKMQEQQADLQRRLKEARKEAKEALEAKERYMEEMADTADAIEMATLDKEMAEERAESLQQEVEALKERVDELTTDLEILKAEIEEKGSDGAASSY

B1: FLAG-EB1 WT C-term (domain or fragment, human, UniProt Q15691 191-268, looked up)
chain: DEAAELMQQVNVLKLTVEDLEKERDFYFGKLRNIELICQENEGENDPVLQRIVDILYATDEGFVIPDEGGPQEEQEEY
notes: ATUM ordered gene ID #394359; also called FLAG-EB1 C-terminal; FLAG-tagged EB1 WT; source: generated and purchased from ATUM Bio, purified (streptavidin-column based methods)
binding result: binds
